In one data set the target is GST-BACH2_331-839 (UniProt P97303 331-839). Nature of the data set: EMSA; MafK presence not stated in the material; 32P-labeled ds probes, 30 min incubation, 4% polyacrylamide gel; buffer, salt, pH and temperature not stated. Particulars: protein: recombinant; tags: N-terminal GST; label: 32P 5' end (PNK). Background: Mobility shift assays separate free from complexed probe on a gel.

The target of the next data set is T1, His-FLAG-TBK1 (mouse, UniProt Q9WUN2 1-729).
T1 construct: An HRV 3C protease site follows the N-terminal FLAG-8xHis tag; also called FLAG-His-TBK1; recombinant mouse His-FLAG-TBK1; source: Sf9 insect cells (baculovirus), purified (FLAG-M2 agarose, G-25 spin column); not shown: FLAG, N-terminal, kept; 8xHis, N-terminal, kept
T1 sequence (looked up): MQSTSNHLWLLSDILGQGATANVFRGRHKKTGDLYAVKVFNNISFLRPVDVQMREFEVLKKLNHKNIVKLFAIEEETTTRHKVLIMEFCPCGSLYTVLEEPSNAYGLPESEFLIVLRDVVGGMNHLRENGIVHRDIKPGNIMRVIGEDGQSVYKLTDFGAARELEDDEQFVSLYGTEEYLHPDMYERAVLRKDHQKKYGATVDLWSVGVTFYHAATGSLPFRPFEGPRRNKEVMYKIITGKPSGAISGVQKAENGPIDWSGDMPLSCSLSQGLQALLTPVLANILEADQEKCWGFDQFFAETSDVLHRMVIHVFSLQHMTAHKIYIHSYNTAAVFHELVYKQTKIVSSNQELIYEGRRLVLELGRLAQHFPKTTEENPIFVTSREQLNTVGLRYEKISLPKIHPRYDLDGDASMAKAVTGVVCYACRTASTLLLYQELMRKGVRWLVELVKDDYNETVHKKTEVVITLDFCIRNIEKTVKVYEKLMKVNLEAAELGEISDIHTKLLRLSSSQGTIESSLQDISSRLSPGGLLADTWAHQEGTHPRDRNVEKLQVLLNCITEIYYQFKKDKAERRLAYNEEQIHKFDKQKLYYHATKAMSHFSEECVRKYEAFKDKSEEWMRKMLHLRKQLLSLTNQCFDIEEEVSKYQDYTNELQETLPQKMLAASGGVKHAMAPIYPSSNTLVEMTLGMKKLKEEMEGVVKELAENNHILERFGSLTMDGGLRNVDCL
Description: pull-down; GST fusion on Glutathione Sepharose beads with purified His-FLAG-TBK1 or His-FLAG-DNMT1, with or without heme, 2 h at 4°C; 20 mM HEPES pH 7.0, 50 mM NaCl, 2 mM TCEP; immunoblot. The following applies: both partners purified. (A western blot detects proteins with antibodies after separation by electrophoresis.)

B1: Slc48a1-MARE (dsDNA)
DNA 1: GCACTCCACTTCTGACTCAGCATTTTGCAGCC
DNA 2: GGCTGCAAAATGCTGAGTCAGAAGTGGAGTGC
With B1, the binding result with GST-BACH2_331-839 is listed as “binds”.

B2: GST-BACH2-381-481 (domain or fragment, mouse, UniProt P97303 381-481, looked up)
chain: KTDYTPLAGNYGQPHVGQKDVSNFAMGSPLRGPGPETLCKQEGELDRRSVIFSASACDQPNTPVHSYSAVSNLDKDLSEPVPKSLWVGAGQSLPSSQAYSH
notes: made by PCR from pGEX6P1-BACH2-IDR; Cloned into pGEX-6P-1; source: E. coli KRX, purified (Glutathione Sepharose 4B)
Regarding B2, the binding result in the data set with His-FLAG-TBK1 was “binds”.

B3: GST-BACH2-IDR (domain or fragment, mouse, UniProt P97303 331-520, looked up)
chain: SRSVSSPSCLRSLFGITKGVESTGLPSTSQQPLVRSSACPFNKGISQGDLKTDYTPLAGNYGQPHVGQKDVSNFAMGSPLRGPGPETLCKQEGELDRRSVIFSASACDQPNTPVHSYSAVSNLDKDLSEPVPKSLWVGAGQSLPSSQAYSHSGLMADHLPGRIRPNTSCPVPIKVCPRSPPLETRTRTSS
notes: BACH2, mouse, intrinsically disordered region, amino acid region 331-520; Plasmid pGEX6P1-BACH2-IDR; also called recombinant BACH2-331-520 with GST kept; source: E. coli KRX, purified (Glutathione Sepharose 4B)
As for B3, the binding result with His-FLAG-TBK1 is “binds”.
